In this series the target is T1, BnaA3.ABF4 (Brassica napus, UniProt X2C209 1-395).
T1 sequence: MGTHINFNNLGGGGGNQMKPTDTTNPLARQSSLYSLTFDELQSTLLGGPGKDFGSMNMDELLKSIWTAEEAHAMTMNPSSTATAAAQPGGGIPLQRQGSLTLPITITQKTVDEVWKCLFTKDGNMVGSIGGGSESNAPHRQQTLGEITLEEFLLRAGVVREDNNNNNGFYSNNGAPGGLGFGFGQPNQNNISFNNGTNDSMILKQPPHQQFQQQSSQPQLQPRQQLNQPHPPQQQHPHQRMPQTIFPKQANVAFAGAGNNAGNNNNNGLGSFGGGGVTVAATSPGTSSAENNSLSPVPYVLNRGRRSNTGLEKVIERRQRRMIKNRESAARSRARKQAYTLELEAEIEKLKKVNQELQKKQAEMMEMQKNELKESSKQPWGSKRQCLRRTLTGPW
Put plainly: EMSA; not given in the material. The following applies: protein: recombinant; tags: GST (N-term, pGEX-4T-1); chain copies: 2; label: biotin.

B1: BnaA9.NF-YA7 promoter ABRE probe (dsDNA)
DNA 1: ATCTGCCCGTAATCTGCTACGTGCAATCTAAACGCTT
DNA 2: AAGCGTTTAGATTGCACGTAGCAGATTACGGGCAGAT
Regarding B1, the binding result is recorded as “binds”.

The values above are taken from publication PMC10920887, “Natural variation in BnaA9.NF-YA7 contributes to drought tolerance in Brassica napus L”.
